Experiment [1] has as its target T1, HSP70 protein (human, UniProt P0DMV8 1-641, limits assumed).
T1 construct: Untagged HSP70: endogenous in H460 and 293T cells (co-IP, western blot with HSP70 antibody) and the purified protein fixed on the SPR chip; The construct of the purified protein is not described; also called heat shock protein 70; endogenous HSP70
Kind of experiment: IP of H460 cell lysate with Hsp70 antibody, western blot. The protocol:
H460 cells were treated with […] (EGF (Peprotech)) for 30 minutes, and then lysed with IP buffer (50 mM Tris (pH7.4), 100 mM NaCl, 10% Glycerol, 1 mM EDTA, 0.5% TritonX-100, PBS) at 4° C. for 30 minutes. […] Actin (Sigma) means loading control, and WCL means whole cell lysate.
(Immunoblotting shows a protein as a band on a membrane.)

The next experiment has as its target T2, HSPA1L (UniProt P34931 1-641).
T2 construct: Identified by mass spectrometry of tryptic peptides
Put plainly: strep-tag column pull-down from 293T lysate, LC-mass spectrometry. Here is the method:
(§1) Separated proteins were degraded to their peptide levels by in-gel digestion using trypsin (Hyclone), and these peptides were analyzed by LC-mass spectrometry (Thermo) (FIG. 1A).
(§2) Cell lysis was performed by incubating at 4° C. for 30 min with an appropriate amount of lysis buffer (50 mM Tris(pH7.4), 100 mM NaCl, 10% Glycerol, 1 mM EDTA, 0.5% TritonX-100, PBS). And, lysed cell lysate was centrifuged at 13,200 rpm for 15 minutes. After […] the supernatant from the cell lysate, the supernatant was passed through a strep-tag column (thermo). After passing the supernatant, the proteins bound to the column were eluted by using elution buffer, and then the collected proteins were separated by SDS-PAGE.

In the next experiment the target is T3, HSPA5 (UniProt P11021 19-654).
T3 construct: Identified by mass spectrometry of tryptic peptides
T3 sequence (P11021 19-654 limits assumed): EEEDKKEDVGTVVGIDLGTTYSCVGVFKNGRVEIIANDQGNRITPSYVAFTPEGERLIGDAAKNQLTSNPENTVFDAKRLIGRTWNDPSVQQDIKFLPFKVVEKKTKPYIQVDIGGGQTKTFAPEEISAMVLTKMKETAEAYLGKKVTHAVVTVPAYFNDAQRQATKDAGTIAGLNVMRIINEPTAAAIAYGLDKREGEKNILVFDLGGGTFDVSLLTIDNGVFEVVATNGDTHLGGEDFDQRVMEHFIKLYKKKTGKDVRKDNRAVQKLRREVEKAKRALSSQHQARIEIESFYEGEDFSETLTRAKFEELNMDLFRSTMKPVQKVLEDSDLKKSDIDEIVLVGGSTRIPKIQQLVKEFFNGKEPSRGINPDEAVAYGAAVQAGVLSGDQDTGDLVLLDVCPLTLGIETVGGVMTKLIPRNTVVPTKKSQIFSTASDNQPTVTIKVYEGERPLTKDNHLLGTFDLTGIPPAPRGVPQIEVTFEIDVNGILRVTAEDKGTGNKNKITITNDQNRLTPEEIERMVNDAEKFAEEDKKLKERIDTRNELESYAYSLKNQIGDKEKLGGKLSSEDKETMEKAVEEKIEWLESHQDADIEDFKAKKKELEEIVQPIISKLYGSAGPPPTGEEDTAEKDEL
The description is as above. Here is the method:
as §1, §2

The target in the next experiment is T4, HSPA2 (UniProt P54652 1-639).
T4 construct: Identified by mass spectrometry of tryptic peptides
T4 sequence (P54652 whole entry): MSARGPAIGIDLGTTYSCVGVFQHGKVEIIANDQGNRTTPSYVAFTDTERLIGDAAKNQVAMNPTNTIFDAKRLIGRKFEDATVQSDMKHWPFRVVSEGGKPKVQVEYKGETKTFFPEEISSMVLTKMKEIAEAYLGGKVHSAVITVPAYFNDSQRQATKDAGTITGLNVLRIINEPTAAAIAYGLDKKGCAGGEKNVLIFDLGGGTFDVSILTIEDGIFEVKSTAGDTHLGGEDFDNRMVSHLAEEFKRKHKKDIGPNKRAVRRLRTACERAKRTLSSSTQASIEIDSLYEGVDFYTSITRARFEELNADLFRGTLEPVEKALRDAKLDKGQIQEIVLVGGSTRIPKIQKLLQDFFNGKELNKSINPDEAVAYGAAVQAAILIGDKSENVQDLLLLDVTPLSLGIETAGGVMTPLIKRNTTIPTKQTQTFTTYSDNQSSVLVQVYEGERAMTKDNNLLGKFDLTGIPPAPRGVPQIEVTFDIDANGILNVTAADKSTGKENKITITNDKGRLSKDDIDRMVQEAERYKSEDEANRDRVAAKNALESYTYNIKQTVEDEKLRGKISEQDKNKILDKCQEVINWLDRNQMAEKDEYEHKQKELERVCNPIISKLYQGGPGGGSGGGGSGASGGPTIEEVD
The experiment is described as above. Here is the method: as §1, §2

For another experiment, the target named is T5, HSPA9 (UniProt P38646 47-679).
T5 construct: Identified by mass spectrometry of tryptic peptides
T5 sequence (P38646 47-679 limits assumed): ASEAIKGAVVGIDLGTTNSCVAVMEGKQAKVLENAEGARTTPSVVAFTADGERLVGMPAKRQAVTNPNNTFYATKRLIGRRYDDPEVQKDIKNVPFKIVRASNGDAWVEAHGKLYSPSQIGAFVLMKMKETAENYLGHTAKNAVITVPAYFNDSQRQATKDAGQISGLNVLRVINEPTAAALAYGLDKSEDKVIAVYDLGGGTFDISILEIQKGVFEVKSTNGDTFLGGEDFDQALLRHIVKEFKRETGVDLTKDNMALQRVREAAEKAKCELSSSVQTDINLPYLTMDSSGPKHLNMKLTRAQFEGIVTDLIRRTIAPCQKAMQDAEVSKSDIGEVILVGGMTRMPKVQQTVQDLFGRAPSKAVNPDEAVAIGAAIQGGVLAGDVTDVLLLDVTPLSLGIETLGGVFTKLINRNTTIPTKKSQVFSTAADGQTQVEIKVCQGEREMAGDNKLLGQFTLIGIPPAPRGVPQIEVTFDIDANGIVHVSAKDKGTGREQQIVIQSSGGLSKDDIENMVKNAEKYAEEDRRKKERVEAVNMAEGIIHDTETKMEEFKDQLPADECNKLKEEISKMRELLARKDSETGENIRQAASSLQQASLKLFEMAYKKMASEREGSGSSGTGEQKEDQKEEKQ
The description is as above. Here is the method:
as §1, §2

A further experiment addresses T6, GFP-HSP70 (human, UniProt P0DMV8 1-641).
T6 construct: Overexpressed in 293T or H460 cells; order of the parts as in the printed name; also called GFP-HSP70 full; not shown: GFP
Kind of experiment: confocal microscopy of 293T cells overexpressing both. Here is the method: After EGF treatment, the cells were washed 3 times with cold PBS, and were fixed with cold methanol for 10 minutes. After fixation, the cells were washed 3 times with cold PBS, and nuclei were stained with DAPI (Invitrogen) solution. After staining, each fluorescence was observed using confocal microscopy.

Another experiment deals with T7, HSP90B1 (UniProt P14625 22-803).
T7 construct: Identified by mass spectrometry of tryptic peptides
T7 sequence (P14625 22-803 limits assumed): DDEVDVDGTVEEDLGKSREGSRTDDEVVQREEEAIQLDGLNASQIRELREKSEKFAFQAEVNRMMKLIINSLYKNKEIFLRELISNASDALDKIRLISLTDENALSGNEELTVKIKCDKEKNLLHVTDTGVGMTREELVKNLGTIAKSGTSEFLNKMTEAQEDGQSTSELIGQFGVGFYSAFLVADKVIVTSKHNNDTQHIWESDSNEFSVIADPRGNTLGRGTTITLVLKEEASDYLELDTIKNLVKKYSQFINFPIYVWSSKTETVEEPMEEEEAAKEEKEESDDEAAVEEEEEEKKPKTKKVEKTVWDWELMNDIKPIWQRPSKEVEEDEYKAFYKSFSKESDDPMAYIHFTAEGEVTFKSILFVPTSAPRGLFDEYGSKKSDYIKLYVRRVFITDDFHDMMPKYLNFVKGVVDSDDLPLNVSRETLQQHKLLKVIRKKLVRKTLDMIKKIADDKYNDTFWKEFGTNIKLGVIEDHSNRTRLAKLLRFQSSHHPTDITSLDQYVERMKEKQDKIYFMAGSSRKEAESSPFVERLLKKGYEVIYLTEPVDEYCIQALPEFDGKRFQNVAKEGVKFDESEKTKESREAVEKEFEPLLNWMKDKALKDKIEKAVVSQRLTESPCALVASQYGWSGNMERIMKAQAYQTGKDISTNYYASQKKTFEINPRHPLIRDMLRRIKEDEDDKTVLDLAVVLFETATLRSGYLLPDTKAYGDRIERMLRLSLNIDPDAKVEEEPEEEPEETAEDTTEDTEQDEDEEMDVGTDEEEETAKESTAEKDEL
Put plainly: strep-tag column pull-down from 293T lysate, LC-mass spectrometry. Here is the method: as §1, §2

Experiment [2] addresses T1, HSP70 protein. Put plainly: strep-tag column IP of 293T lysate overexpressing Strep-AIMP2-DX2, western blot. The protocol:
After the cells were lysed in the same manner as described above, IP was performed using a Strep-tag column (GE Helathcare).

T1 sequence (P0DMV8 whole entry): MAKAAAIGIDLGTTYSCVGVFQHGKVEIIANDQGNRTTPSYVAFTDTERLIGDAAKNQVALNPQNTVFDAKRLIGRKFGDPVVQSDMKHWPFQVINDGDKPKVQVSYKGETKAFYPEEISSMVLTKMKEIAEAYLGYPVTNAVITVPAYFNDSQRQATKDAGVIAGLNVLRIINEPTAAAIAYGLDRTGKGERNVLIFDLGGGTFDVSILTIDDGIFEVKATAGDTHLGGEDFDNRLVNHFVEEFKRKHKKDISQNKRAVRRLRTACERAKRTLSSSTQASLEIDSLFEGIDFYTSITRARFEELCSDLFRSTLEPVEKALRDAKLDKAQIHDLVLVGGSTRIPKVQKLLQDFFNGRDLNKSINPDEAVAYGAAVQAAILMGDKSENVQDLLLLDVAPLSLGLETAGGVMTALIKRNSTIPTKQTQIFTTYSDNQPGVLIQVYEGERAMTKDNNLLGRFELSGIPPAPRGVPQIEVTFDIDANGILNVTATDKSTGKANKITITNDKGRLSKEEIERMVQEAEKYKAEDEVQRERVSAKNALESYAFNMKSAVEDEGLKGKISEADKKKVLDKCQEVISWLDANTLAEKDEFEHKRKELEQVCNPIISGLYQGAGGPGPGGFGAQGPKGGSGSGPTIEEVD
T6 sequence (P0DMV8 whole entry): as above
T2 sequence (P34931 whole entry): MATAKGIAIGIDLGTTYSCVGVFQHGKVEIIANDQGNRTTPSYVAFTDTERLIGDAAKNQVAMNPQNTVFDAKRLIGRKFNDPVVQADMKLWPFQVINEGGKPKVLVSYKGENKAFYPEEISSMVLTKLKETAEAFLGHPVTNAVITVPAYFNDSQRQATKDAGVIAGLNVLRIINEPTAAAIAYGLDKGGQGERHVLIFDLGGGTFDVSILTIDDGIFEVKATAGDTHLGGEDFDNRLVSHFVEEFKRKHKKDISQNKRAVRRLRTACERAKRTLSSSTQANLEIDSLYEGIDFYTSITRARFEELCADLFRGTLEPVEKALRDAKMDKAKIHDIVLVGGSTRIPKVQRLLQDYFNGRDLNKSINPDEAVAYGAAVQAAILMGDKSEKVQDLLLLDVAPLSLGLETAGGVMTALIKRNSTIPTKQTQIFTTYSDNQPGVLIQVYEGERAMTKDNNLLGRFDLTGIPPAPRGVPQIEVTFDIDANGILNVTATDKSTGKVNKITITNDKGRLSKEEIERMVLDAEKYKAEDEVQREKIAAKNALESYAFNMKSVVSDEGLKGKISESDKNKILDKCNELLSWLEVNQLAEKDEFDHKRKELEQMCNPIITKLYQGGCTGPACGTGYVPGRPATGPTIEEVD

B1: AIMP2 (other, UniProt Q13155 1-320, looked up)
chain: MPMYQVKPYHGGGAPLRVELPTCMYRLPNVHGRSYGPAPGAGHVQEESNLSLQALESRQDDILKRLYELKAAVDGLSKMIQTPDADLDVTNIIQADEPTTLTTNALDLNSVLGKDYGALKDIVINANPASPPLSLLVLHRLLCEHFRVLSTVHTHSSVKSVPENLLKCFGEQNKKQPRQDYQLGFTLIWKNVPKTQMKFSIQTMCPIEGEGNIARFLFSLFGQKHNAVNATLIDSWVDIAIFQLKEGSSKEKAAVFRSMNSALGKSPWLAGNELTVADVVLWSVLQQIGGCSVTVPANVQRWMRSCENLAPFNTALKLLK
notes: Endogenous protein in H460 cell lysate; also called p38/JTV-1
On to B1, for which, in the experiment with HSP70 protein [1], the binding result is listed as “no binding”.

B2: strep-AIMP2 (other, UniProt Q13155 1-320, looked up)
chain: B1 chain
notes: Overexpressed in 293T cells; not shown: Strep tag from the pEXPR-IBA5 vector
With B2, the binding result with HSPA1L, in the experiment with HSPA5, in the experiment with HSPA2 and in the experiment with HSPA9 was “no binding” in each case.

B3: AIMP2-DX2 protein (other)
chain: MPMYQVKPYHGGGAPLRVELPTCMYRLPNVHGRSYGPAPGAGHVQDYGALKDIVINANPASPPLSLLVLHRLLCEHFRVLSTVHTHSSVKSVPENLLKCFGEQNKKQPRQDYQLGFTLIWKNVPKTQMKFSIQTMCPIEGEGNIARFLFSLFGQKHNAVNATLIDSWVDIAIFQLKEGSSKEKAAVFRSMNSALGKSPWLAGNELTVADVVLWSVLQQIGGCSVTVPANVQRWMRSCENLAPFNTALKLLK
notes: Untagged AIMP2-DX2: endogenous in H460 cells (IP with Hsp70 antibody) and the purified protein flowed in SPR
Turning to B3, the binding result with HSP70 protein [1] is “binds”.

B4: RFP-AIMP2-DX2 (other)
chain: B3 chain
notes: Overexpressed in 293T cells; order of the parts as in the printed name; not shown: RFP
Turning to B4, in the experiment with GFP-HSP70, the binding result is “binds”.

B5: Strep-AIMP2-DX2 (other)
chain: B3 chain
notes: Overexpressed in 293T cells; The tag is put first as in the printed name; also called Strep-DX2; exogenous AIMP2-DX2; not shown: Strep tag from the pEXPR-IBA5 vector
As for B5, the binding result with HSP90B1 is listed as “no binding”; in the experiment with HSP70 protein [2], “binds”.

For the origin of these results see patent publication US20190033295A1 (MEDICINAL BIOCONVERGENCE RESEARCH CENTER, published 2019).
